test: soluble on expression in E. coli; label from the status in PepcDB or PDB records

Soluble on expression in E. coli, not soluble:
MGSDKIHHHHHHKQEPISKSGVPVINLSEDVSTVPSLLLSEAAEKLEIVPLEMTDESVLSDITEMQVTDHNIWIDHGREFYIYRFSRTGKFLNKIGSIGQGPGEYTTYSTFLVDEDKKEVYIIANTNGVLAYDFEGNFKRKIIDIQMILQLFSSPYDQYILNNQKFFATQNFGLYRPIDKDSLWSFVSLGDDFQKKKYFKNPAHVGREEQIIANRANMDRMVNYWREYLTSMDTYNAQLTLKYPDTDTIYCYDDATNQLSPQYAIFTDEEKGDYEATHLWFKDRKAFDYFSIFSYYPTKDFIYLVGSKGEEVYTYCYNKKDGSVRLQKRQSTITERDVPWFSFPLRQMKRDFVLDNDLGGGDFTVDSRSSGKYWIDILEPGGDENWIDIDQIKSSTVIDESKKKELIRVLESATEDSNPILMIATLK
MGSDKIHHHHHHKTRTVFVCQQCGAQQSRWMGKCPECGAWDSLVEQIVTPARGTGGQRAATVGQNQPIRLRDVPLTDFQRLPVYAEEFARVLGGGLVPGSVVLIGGDPGVGKSTLLGQVAAHFAASVGPALYVSAEESAQQIRLRAERLGLTADDLFLLAETSLDLIIEHIRHLRPRLVIVDSIQTVYLPELTSAAGSVSQVREGALRLMQLAKETAIPIVLVGHVTKEGAIAGPRVLEHIVDVVLYLEGDRFHQFRLLRGGKNRFGSTNEVGVFEMTGDGLREVRNPSQVFLAERNTQSPGSTVTVTLEGTRPLLVEVQALTSHTGNAQPRRTTNGFDLNRLLMLTAVLSKRVGLPLFNQDLYVNIVGGLRIGEPAADLAVALAIASSYRNQRIASRSGLPW
MGSDKIHHHHHHKTTTAVQLADTFAFMRQKKVLVLDLDPQTNATLALVGEERWEQADERGQTLAHLFLDLLNGTRNFNPERAIVRGASNLNTIPPEVFDQLPESAQYGRVDVLPSSIRLIDVQDRMQDIANRTNYSLSPMAVVQKYIGPLFGRYDYVLIDCPPNLGFITQNGLEVSDHYLIPTIPDRMSTYGIPQIAGKIDELRRDRDLKIRCLGVVVTKFQSNSSQHKQGLEHLPEYLRSAFAYTNEDTPPILNTVMPQTNASAEAMLFERDVRNYPVKYGSGAVAGQAAYKYGLDLAAEVQALLGDEDEA
MGSDKIHHHHHHLKQFRRNYSDPNRGPTGKGVAKYQALKHTCQVCPSKMKCCPKADARKITREEHEDARQVARKIAETKQYVISMRLKKKVEMLFAHLKRILGLGRLRLRDPSRDHGYAMTLPGTACSASDEFLLAATAQNLRKLAKTFPAPQQTRKA
MGSDKIHHHHHHLLGDDPFLVINGDVFIDTLPVMPELKSINPDNGCLAHLWLVENPSQHPNGDFGFVSQEGVTTAELSQGPLSADLKLNFTFSGIGLYHPQLFDDIPEGPVPLGPLLREKMALGQVQGQLHRSFWCDVGTLERLAQLETRLELAARR
MGSDKIHHHHHHLPTSVSPISYQLTVKTYLPGYGYTADKNNLTFEGQVLIELNITKSIKKVSLNSKDLNYTEEFIKKSSILVNGKSIAFTLDDKQSTHEKIFFNLDETVEPTTSATLKVAFGAPLRTDMSGLYQTTYTNSKGESKMAAVTQMEPVYARRMVPCFDEPAYKATWTVTVIHPNKTVAVSNGIEDKVEDGQPGFIISTFKPTPRMSSYLLAIFISEFEYNEATTKSGVRFRVWSRPEEKNSTMYAVEAGVKCLEYYEKYYNISFPLPKQDMVALPDFSAGAMENWGLITYRESALLYDPRIYSGSQKRRVAVVIAHELAHQWFGNLVTLKWWNDLWLNEGFATLVEYLGTDEISDGNMRMREWFTMDALWSALAADSVASTHPLTFKIDKAMEVLDSFDSVTYDKG
MGSDKIHHHHHHLSGQQDDVEDGMDQDTLTRIAEALERMAPVPQSTPDFSAASGFVWHVEPDRLEPVPEINRVELDLLVGIDRSRDTLLENTRRFAAGHAANNALLWGARGMGKSSLVKAIHGALVTDHPELKLVELQREDLPSVARLLNHLRGAPCRFILFCDDLSFSHDDQHYKSLKAVLDGGIEGRPENVVFYATSNRRHLMPRDMIENERSSAINPSEAVEEKVSLSDRFGLWLGFHPCNQDAYLAMIEGYCAAYGVTVDPERLRAEAIEWQATRGARSGRVAWQFFTDLAGREGVALR
MGSDKIHHHHHHLTDLKDALRTEALDAGFAKMGVCSPNAVPETAARLKAFVDAGFHGQMGWMAERMHWRGDASALWPEAKSVVMLAEPYTPDSDPLDALARKDRATISVYAQGRDYHDLVKKRLKRVGRWLLAQCPGEQIKVFVDTAPVMEKPLAQAAGLGWQGKHTNLLARDLGNWVFLGAIFTTVELPIDEPEAEHCGSCTACLDICPTNAFPAPFQLDARKCISYLTIEHKGPVDLALRAKLGNRIYGCDDCLAVCPWNKFAQTARDIRYAPRDDLRSPLLADLAALDDAGFRARFSGSPIKRIGRDRFVRNILYAIGNSGQAKLVDAARPLTDDPDVAVADAARWAMERLL
MGSDKIHHHHHHMAAKLFGIMMINVQSIELSIVNLRTLRQVERVRSDVSLGEDIYDQHTIDYDSVEQAAQALSGFVQIMNDYGVKDYHLWGSWSLSSANNADYIQDQLLVRTGLKIDWLSSSQETYLRSVAVAVHFPRFKQMITKPTYLLGINSGSVGISHYDQSNFVFSRSLRLGPVRIAEVLEDLQSSVPNYVEVLDDYISSQIVDFGRFLPGRRDQPSNVVMLGVAPFATLFRQQQSKAGVEELSKADFQALYEDVLNASDQYLMDKYEVDEEDVRLIVPELLLINELLQLTNAEKIWLGNVTVLDGLIIQEAIKLGYKKYNFNDQIVTAAKNIADRYNVEPKHRDLVTKFSLHLFDQLKPLHHLGKRERLLLQVAAIVHDVGSYIDPHQHYLHSDYILQATELMGLTDTEKRMVALISRYHSAQTPSKDIRHFGHLQVEQRLLVSKLSAILRIADALDDGRKQKIDKISVSIRNPRVIITCFAHDDLFLENWVFAQKAEFFKEVFGLTPVIKLRGVR
MGSDKIHHHHHHMAATNYSQTIKNDTKDFITTAILQLLGIQKTFEKPKNLAQLTVSNVCKRAGVSRMAFYRNFESIDQVIYQYYQPQISQSFEIIRQNVSASSKIENQLKFFEEFKDDLFLSESQGYEPIIRQIYIEEIEKFYEKTNDEYFITFVANGVYALWRKWLMNGQDKSIEEIHELIRKIVTI
MGSDKIHHHHHHMADIALFQDDAFSLSSLTAAINEQPHVPGRVGALGLFEEDGITTTTIQIERDGDTLSLVSAGERGSPSAIVVGSKRTMIPFNTVHLPQRAFVKADEIQNLRAFGSETELEALQTVVNRRLAKLRRQLDATHEFHRIGAIKGAVLDADGKTVLIDLLQYFGIEQTVIPFELGKADTEIRVKCLEVQDAIEDALGATTYTGVRVLCGRAFWNKLIVAKTVKETYLATAMAASLRGDAREALDFGGCTFERYRGRVGDIGYVADDEAYAVPEGVPELFVTRFAPADYVEAVNTTGLPYYAKQELAQFGKGVDIEAQSNPVHLCTRPKAIVKLKA
MGSDKIHHHHHHMADKPFRLVTRSDFDGLVCATLLKELALIDEITFVHPKDMQDGQIPVTERDITTNLPYVEGVHLCFDHHLSETIRVGKKANHIIDPLAPSAARVVYNYFGGKARFPRIPDDMMDAVDKGDSAQYNMEEVLHPGGWELLNFLMDARTGLGRFREFRIPNYQLMMELIDYCRDHAIEDILDLPDVSERVDLYREHEPRFKEQLKRCSTVHGNLVVLDLRDEDPIWAGNRFMIYALYPETNISIHVLWGRERRNTVFAVGKSIFNRSSNTNIGELMLGYGGGGHHAAGTCQVDNAQAADVLARLIARITEDG
MGSDKIHHHHHHMADTTPDVETDKCDDLLESLRRGRPAAGQDPVKRSQIIDGARRVFIEKGFEAASMNDITREAGVSKGTIYVYFANKEELFEALIEEERGTIFKNMYDMLDRADDLRQTLVKFGKVLSMKITSARVIQAQRTVIGASDRIPDMGARFYERGPKRGHDKVVKFLNAAIERGLLKIDDVDLAAYQFTELCLAGLFRQCIFAYRTKAPSQEEIDHIVRSGVDMFLKNYGTEQLAEEESHQMIALEAKA
MGSDKIHHHHHHMAEERVEPKPIDLGEYKFGFHDDVEPVLSTGKGLNEGVIRELSAAKGEPEWMLEFRLKSYETFKKMPMQTWGADLSEIDFDDLIYYQKPSDKPARSWDDVPEKIKETFERIGIPEAERAYLAGASAQYESEVVYHNMKEEFQKLGIIFTDTDSALKEYPDLFKQYFAKLVPPTDNKLAALNSAVWSGGTFIYVPKGVKVDIPLQTYFRINNENIGQFERTLIIVDEGASVYYVEGCTAPTYSSNSLHAAIVEIFALDGAYMRYTTIQNWSDNVYNLVTKRAKAQKDATVEWIDGNLGAKTTMKYPSVYLDGEGARGTMLSIAFANAGQHQDTGAKMIHNAPHTSSSIVSKSIAKGGGKVDYRGQVTFNKNSKKSVSHIECDTIIMDDLSASDTIPFNEIHNSQVALEHEAKVSKISEEQLYYLMSRGLSESEATEMIVMGFVEPFTKELPMEYAVELNRLISYEMEGSVG
MGSDKIHHHHHHMAEKFDAIVVGAGPAGNAAAYTMAKAGLSVLQLERGETPGTKNVQGAILYADALERIIPDFRDDAPLERHIIEQRMWVLDEKSFIGTNYRSDAFNSDQPNRYTILRAPFDKWFSGKVKEAGALVICETTVTELIQEGKKVIGVRTDREGGDIYADVVILADGVNSLLAKKAGFHGELEAKNVALAVKEIHFLPEEIVQSRFNIKGNEGVVIEIAGAVTHGMVGTAFLYTNKESITLGIGCLLSDFKNAGIAPYTLLEKLKAHPAIAPLIEGGEMKEYAAHLIPEGGYKAVPTLYGEGWMIAGDSAGLVNAVHREGSNLAMTSGRLAAETVIALKEMKLPCTAPHLARYKTALDDSFVMKDLRKYKELPDILHGNPHFFSVYPQLLNRAAHTMLMVDGQDKHSKEKTIRGSFVQQRSLWGLVGDAYRMWRATR
MGSDKIHHHHHHMAEQQKTAAATAEAEAIDLGEFSGLLEKDFKVKKDDSEKLQQLVRNLALAAQSRSETTTISSNAIKSIKSLIAGIDKMLTTQVNEILHAPEVREMEGTWRGLWYLINNTETDTKLKIRVMNISKEQLADTLEDYEGQMWDQSPIFKKVYTDEYSMLGGEPIGCIIGAYEFSNHPRDVGLLRNISGVCASAHTPFIAAASPRLFRMDSWQELPNPQDLQMIVNNPAYASWQSLRESEDARYIGLTMPRVLARLPYGSETVPVKGFTFEEEVGGDHNKYVWMNAAFPMGVNINRSHKLYGWGTQIRGVENGGTVLNLPVHAFPTDDGSIAMKCPTEVAIDDRREAELAKLGLMPILHRKNTDLAAFIGAHSLQDDETRAGRLVDPDAQSNERLSANLPYLFPVSRFAHYLKAIARDKIGSFKERTDMEIWLTEWINRYVLANPAFADDKARAKRPLAAAEVQVDSVEGRPGYYNARFYLRPHYQLEGINASLRLVSELPSVKG
MGSDKIHHHHHHMAGCDDSFDIIVVGAGPVGLSFAASLAYSQLKLAVVEGQALERLASPAFDGREIALTHASIGILRELGAWDVISASDKSPLQGARVLNGSSPFALCFDSPGGSAEPLGVLVPNCQIRDALFKIIRLRGHARLLCGHSVVRATNSRQGAVITLSNGRQLSARLLVAADSRFSATRNLLGIGADINRLGNSMLICRVRHERPHHQIAIEWFDHHQTVAMLPLAPGVSSLLLTLPSNEADGLLALDDELFLRELTKRCRGRLGTMSLASQRYIYPLATTWAHRFRAPSFALIGDAAIGMHPVTAHGFNIGLGGQKQLARGIETAWRDRRDIADPDMLHRYESRLRLSAAPLYHATNILVGLYSSEHPAARLARHVGLRLGQHLPFVRHGIAAMLRR
